Target: T1, EGFP-RABL2B, Q9UNT1
T1 chain: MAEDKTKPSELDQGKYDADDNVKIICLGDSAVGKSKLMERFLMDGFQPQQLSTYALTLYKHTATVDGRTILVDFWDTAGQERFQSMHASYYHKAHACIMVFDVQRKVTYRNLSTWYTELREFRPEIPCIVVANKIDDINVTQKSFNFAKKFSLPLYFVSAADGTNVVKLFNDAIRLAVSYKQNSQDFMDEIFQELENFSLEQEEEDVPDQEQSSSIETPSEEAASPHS
Test: co-immunoprecipitation (IP anti-EGFP, Western blot anti-Myc), IP/input band quantitation
Conditions: chain shown with the change; lysates from HEK293T cells; Input is 2.5% of lysate used for IP; parent: 100

B1: CD8α-(HTR6-CT)-myc, Q9R1C8 L398A; L399A; L400A (protein)
chain: MVPEPGPVNSSTPAWGPGPPPAPGGSGWVAAALCVVIVLTAAANSLLIALICTQPALRNTSNFFLVSLFTSDLMVGLVVMPPAMLNALYGRWVLARGLCLLWTAFDVMCCSASILNLCLISLDRYLLILSPLRYKLRMTAPRALALILGAWSLAALASFLPLLLGWHELGKARTSAPGQCRLLASLPYVLVASGVTFFLPSGAICFTYCRILLAARKQAVQVASLTTGTATAGQALETLQVPRTPRPGMESADSRRLTTKHSRKALKASLTLGILLSMFFVTWLPFFVASIAQAVCDCISPGLFDVLTWLGYCNSTMNPIIYPLFMRDFKRALGRFVPCVHCPPEHRASPASPSMWTSHSGARPGLSLQQVLPLPLPPNSDSDSASGGTSGLQLTAQAAAPGEATRDPPPPTRAPTVVNFFVTDSVEPEIRQHPLGSPMN
B1 showed a percent of parent of 243%.
